Consider nine molecules from US20210196796A1 (SYNTHEKINE, published 2021).

T1: orthogonal hCD122 receptor (hoRb), hCD122 with H133D and Y134F (human, UniProt P14784 27-550)
T1 sequence: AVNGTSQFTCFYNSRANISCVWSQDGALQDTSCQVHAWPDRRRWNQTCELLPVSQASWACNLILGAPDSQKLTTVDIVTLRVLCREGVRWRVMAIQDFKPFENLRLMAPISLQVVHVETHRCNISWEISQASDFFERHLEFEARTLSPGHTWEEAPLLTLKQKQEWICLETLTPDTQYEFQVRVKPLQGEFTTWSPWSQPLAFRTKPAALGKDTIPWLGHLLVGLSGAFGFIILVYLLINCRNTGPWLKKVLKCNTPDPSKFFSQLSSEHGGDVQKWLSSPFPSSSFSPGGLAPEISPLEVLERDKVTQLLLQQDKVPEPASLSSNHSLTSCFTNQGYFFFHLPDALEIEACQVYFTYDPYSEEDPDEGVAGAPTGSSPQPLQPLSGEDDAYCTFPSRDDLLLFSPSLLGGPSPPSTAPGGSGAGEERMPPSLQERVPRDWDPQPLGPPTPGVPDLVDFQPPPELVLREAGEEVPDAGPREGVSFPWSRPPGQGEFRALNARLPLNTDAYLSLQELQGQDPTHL

B1: Q126C, SQVLKA (ligand)
chain: APTSSSTKKTQLQLSQLLVLLKAILNGINNYKNPKLTRMLTFKFYMPKKATELKHLQCLEEELKPLEEVLNLAQSKNFHLRPRDLISNINVIVLELKGSETTFMCEYADETATIVEFLNRWITFCCSIISTLT
B2: L14W, SQVLKA (ligand)
chain: B1 chain with L14W, C126Q
B3: Q126T, SQVLKA (ligand)
chain: B1 chain with C126T
B4: Q126R, SQVLKA (ligand)
chain: B1 chain with C126R
B5: Q126S, SQVLKA (ligand)
chain: B1 chain with C126S
B6: Q126G, SQVLKA (ligand)
chain: B1 chain with C126G
B7: Q126D, SQVLKA (ligand)
chain: B1 chain with C126D
B8: Q126I, SQVLKA (ligand)
chain: B1 chain with C126I
B9: Q126E, SQVLKA (ligand)
chain: B1 chain with C126E

Residue numbers refer to the chain shown, from its start. Names and notes keep the numbering of the source.
For Relative Proliferation Fold Change 3F8 1:10 in this document: reference of the scale not given here.
For Relative Proliferation Fold Change 3F8 1:2 in this document: reference of the scale not given here.
For Relative Proliferation Fold Change 3F8 1:50 in this document: reference of the scale not given here.
For Relative Proliferation Fold Change NKL 1:10 in this document: reference of the scale not given here.
For Relative Proliferation Fold Change NKL 1:2 in this document: reference of the scale not given here.
For Relative Proliferation Fold Change NKL 1:50 in this document: reference of the scale not given here.

The first assay deals with T1, orthogonal hCD122 receptor (hoRb), …. In words: cell-based or functional assay.
Turning to B1, the “NKL Ortho Proliferation Signal 1:2” value came out at 6560, the “NKL Ortho Proliferation Signal 1:10” value is 8210, the “NKL Ortho Proliferation Signal 1:50” value stood at 7200 and the “Relative Proliferation Fold Change NKL 1:2” value is 0.44 fold. In addition, the “Relative Proliferation Fold Change NKL 1:10” value is 0.53 fold and the “Relative Proliferation Fold Change NKL 1:50” value came to 0.49 fold.

Turning to B2, the “NKL Ortho Proliferation Signal 1:2” value was 50300, the “NKL Ortho Proliferation Signal 1:10” value was determined as 45100, the “NKL Ortho Proliferation Signal 1:50” value is 20900 and the “Relative Proliferation Fold Change NKL 1:2” value worked out at 4.04 fold. Besides, the “Relative Proliferation Fold Change NKL 1:10” value amounted to 2.83 fold and the “Relative Proliferation Fold Change NKL 1:50” value is 1.39 fold.

As for B3, the “NKL Ortho Proliferation Signal 1:2” value stood at 5980, the “NKL Ortho Proliferation Signal 1:10” value was determined as 6750, the “NKL Ortho Proliferation Signal 1:50” value came out at 5180 and the “Relative Proliferation Fold Change NKL 1:2” value came out at 0.44 fold. Also, the “Relative Proliferation Fold Change NKL 1:10” value was found to be 0.47 fold and the “Relative Proliferation Fold Change NKL 1:50” value worked out at 0.41 fold.

In the case of B4, the “NKL Ortho Proliferation Signal 1:2” value turned out to be 13900, the “NKL Ortho Proliferation Signal 1:10” value amounted to 9670, the “NKL Ortho Proliferation Signal 1:50” value amounted to 6650 and the “Relative Proliferation Fold Change NKL 1:2” value came to 1.18 fold. For the same molecule, the “Relative Proliferation Fold Change NKL 1:10” value amounted to 0.75 fold and the “Relative Proliferation Fold Change NKL 1:50” value was determined as 0.57 fold.

Take B5: the “NKL Ortho Proliferation Signal 1:2” value came to 9460, the “NKL Ortho Proliferation Signal 1:10” value came out at 7880, the “NKL Ortho Proliferation Signal 1:50” value was determined as 6310 and the “Relative Proliferation Fold Change NKL 1:2” value was found to be 0.71 fold. In addition, the “Relative Proliferation Fold Change NKL 1:10” value stood at 0.57 fold and the “Relative Proliferation Fold Change NKL 1:50” value turned out to be 0.5 fold.

B6: the “NKL Ortho Proliferation Signal 1:2” value is 5740, the “NKL Ortho Proliferation Signal 1:10” value was found to be 7220, the “NKL Ortho Proliferation Signal 1:50” value was 6050 and the “Relative Proliferation Fold Change NKL 1:2” value came to 0.45 fold. Besides, the “Relative Proliferation Fold Change NKL 1:10” value came to 0.49 fold and the “Relative Proliferation Fold Change NKL 1:50” value turned out to be 0.45 fold.

For the molecule B7, the “NKL Ortho Proliferation Signal 1:2” value is 4640, the “NKL Ortho Proliferation Signal 1:10” value stood at 7560, the “NKL Ortho Proliferation Signal 1:50” value came to 6380 and the “Relative Proliferation Fold Change NKL 1:2” value was found to be 0.39 fold. For the same molecule, the “Relative Proliferation Fold Change NKL 1:10” value worked out at 0.49 fold and the “Relative Proliferation Fold Change NKL 1:50” value was determined as 0.46 fold.

Turning to B8, the “NKL Ortho Proliferation Signal 1:2” value was 40000, the “NKL Ortho Proliferation Signal 1:10” value came out at 35600, the “NKL Ortho Proliferation Signal 1:50” value is 16700 and the “Relative Proliferation Fold Change NKL 1:2” value is 3.78 fold. For the same molecule, the “Relative Proliferation Fold Change NKL 1:10” value was 2.5 fold and the “Relative Proliferation Fold Change NKL 1:50” value came to 1.25 fold.

For the molecule B9, the “NKL Ortho Proliferation Signal 1:2” value came out at 10600, the “NKL Ortho Proliferation Signal 1:10” value was found to be 8600, the “NKL Ortho Proliferation Signal 1:50” value stood at 6800 and the “Relative Proliferation Fold Change NKL 1:2” value was determined as 1.01 fold. Moreover, the “Relative Proliferation Fold Change NKL 1:10” value stood at 0.68 fold and the “Relative Proliferation Fold Change NKL 1:50” value is 0.55 fold.

A further assay has the same target. The experiment in a line: cell-based or functional assay. The source holds these as a separate data set.
For B1, the “3F8 Ortho Proliferation Signal 1:2” value turned out to be 452 cts/min, the “3F8 Ortho Proliferation Signal 1:10” value was 574 cts/min, the “3F8 Ortho Proliferation Signal 1:50” value was determined as 748 cts/min and the “Relative Proliferation Fold Change 3F8 1:2” value amounted to 2.28 fold. In addition, the “Relative Proliferation Fold Change 3F8 1:10” value worked out at 0.68 fold and the “Relative Proliferation Fold Change 3F8 1:50” value was 1.4 fold.

As to B2, the “3F8 Ortho Proliferation Signal 1:2” value was 35300 cts/min, the “3F8 Ortho Proliferation Signal 1:10” value amounted to 36000 cts/min, the “3F8 Ortho Proliferation Signal 1:50” value worked out at 13600 cts/min and the “Relative Proliferation Fold Change 3F8 1:2” value turned out to be 66.2 fold. In addition, the “Relative Proliferation Fold Change 3F8 1:10” value was 31.8 fold and the “Relative Proliferation Fold Change 3F8 1:50” value amounted to 16.5 fold.

As for B3, the “3F8 Ortho Proliferation Signal 1:2” value came to 3380 cts/min, the “3F8 Ortho Proliferation Signal 1:10” value is 1880 cts/min, the “3F8 Ortho Proliferation Signal 1:50” value was found to be 1320 cts/min and the “Relative Proliferation Fold Change 3F8 1:2” value was 0.28 fold. In addition, the “Relative Proliferation Fold Change 3F8 1:10” value is 0.54 fold and the “Relative Proliferation Fold Change 3F8 1:50” value worked out at 1.92 fold.

In the case of B4, the “3F8 Ortho Proliferation Signal 1:2” value is 22400 cts/min, the “3F8 Ortho Proliferation Signal 1:10” value is 18100 cts/min, the “3F8 Ortho Proliferation Signal 1:50” value was determined as 3710 cts/min and the “Relative Proliferation Fold Change 3F8 1:2” value came to 0.49 fold. Besides, the “Relative Proliferation Fold Change 3F8 1:10” value is 1.44 fold and the “Relative Proliferation Fold Change 3F8 1:50” value was 1.37 fold.

Take B5: the “3F8 Ortho Proliferation Signal 1:2” value was determined as 9540 cts/min, the “3F8 Ortho Proliferation Signal 1:10” value was found to be 2870 cts/min, the “3F8 Ortho Proliferation Signal 1:50” value was 826 cts/min and the “Relative Proliferation Fold Change 3F8 1:2” value worked out at 19.3 fold. The “Relative Proliferation Fold Change 3F8 1:10” value worked out at 3.69 fold and the “Relative Proliferation Fold Change 3F8 1:50” value is 1.6 fold.

As for B6, the “3F8 Ortho Proliferation Signal 1:2” value turned out to be 1540 cts/min, the “3F8 Ortho Proliferation Signal 1:10” value came to 1100 cts/min, the “3F8 Ortho Proliferation Signal 1:50” value was 838 cts/min and the “Relative Proliferation Fold Change 3F8 1:2” value came to 7.05 fold. The “Relative Proliferation Fold Change 3F8 1:10” value is 2.14 fold and the “Relative Proliferation Fold Change 3F8 1:50” value came out at 1.14 fold.

Take B7: the “3F8 Ortho Proliferation Signal 1:2” value came out at 294 cts/min, the “3F8 Ortho Proliferation Signal 1:10” value worked out at 368 cts/min, the “3F8 Ortho Proliferation Signal 1:50” value is 544 cts/min and the “Relative Proliferation Fold Change 3F8 1:2” value turned out to be 0.63 fold. Further, the “Relative Proliferation Fold Change 3F8 1:10” value amounted to 0.4 fold and the “Relative Proliferation Fold Change 3F8 1:50” value was found to be 0.61 fold.

Consider B8, for which the “3F8 Ortho Proliferation Signal 1:2” value was 27400 cts/min, the “3F8 Ortho Proliferation Signal 1:10” value was found to be 27000 cts/min, the “3F8 Ortho Proliferation Signal 1:50” value stood at 9510 cts/min and the “Relative Proliferation Fold Change 3F8 1:2” value is 30 fold. Further, the “Relative Proliferation Fold Change 3F8 1:10” value came to 11.3 fold and the “Relative Proliferation Fold Change 3F8 1:50” value stood at 8.69 fold.

As for B9, the “3F8 Ortho Proliferation Signal 1:2” value turned out to be 21000 cts/min, the “3F8 Ortho Proliferation Signal 1:10” value worked out at 14600 cts/min, the “3F8 Ortho Proliferation Signal 1:50” value is 2660 cts/min and the “Relative Proliferation Fold Change 3F8 1:2” value came out at 129 fold. Further, the “Relative Proliferation Fold Change 3F8 1:10” value turned out to be 33.6 fold and the “Relative Proliferation Fold Change 3F8 1:50” value was 6.4 fold.
